Measured values from the supplement of paper PMC10567573.

B1: ETS2 (parent)
chain: TSGKRYVYRFVCDLQNLLGFTPEE
B2: PPEF2 (parent)
chain: FIPSSHNDRDFLTRIFTEDRFAQD

Variants of: B1
Assay: protein stability index of a GFP-peptide fusion (GPS, HEK-293T) (PSI 1-6); higher = more stable
Conditions: c terminus: a fixed tail appended
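Note: lentivirally expressed fusions sorted by FACS into six bins by GFP to DsRed ratio, PSI derived from sequencing read proportions per bin multiplied by bin number.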

| Variant | protein stability index |
| --- | --- |
| TSGFRYVYRFVCDLQNLLGFTPEE [K4F] | 2.34 |
| TSGERYVYRFVCDLQNLLGFTPEE [K4E] | 1.72 |
| TSGGRYVYRFVCDLQNLLGFTPEE [K4G] | 2.54 |
| TSGWRYVYRFVCDLQNLLGFTPEE [K4W] | 2.72 |
| TSGLRYVYRFVCDLQNLLGFTPEE [K4L] | 2.8 |
| TSGKRYVYRFVCDLQNLLGFTPEG [E24G] | 2.14 |
| TSGKRYVYRFVCDLQNLLGFTPEV [E24V] | 2.51 |
| TSGKRYVYRFVCDLQNLLGFTPEC [E24C] | 2.32 |
| TSGKRYVYRFVCDLQNLLGFTPEA [E24A] | 2.69 |
| TSGKRYVYRFVCDLQNLLGFTPEL [E24L] | 1.96 |
| TSGKRYVYRFVCDLQNLLGFTPEH [E24H] | 2.03 |
| TSGKRYVYRFVCDLQNLLGFTPEY [E24Y] | 2.38 |
| TSGKRYVYRFVCDLQNLLGFTPEN [E24N] | 2.33 |
| TSGKRYVYRFVCDLQNLLGFTPEK [E24K] | 1.81 |
| TSGKRYVYRFVCDLQNLLGFTPEI [E24I] | 1.75 |
| TSGKRYVYRFVCDLQNLLGFTPER [E24R] | 1.96 |
| TSGKRYVYRFVCDLQNLLGFTPEW [E24W] | 2.5 |
| TSGKRYVYRFVCDLQNLLGYTPEE [F20Y] | 2.77 |
| TSGKRYVYRFVCDLQNLLGNTPEE [F20N] | 3.28 |
| TSGKRYVYRFVCDLQNLLGMTPEE [F20M] | 1.62 |
| TSGKRYVYRFVCDLQNLLGTTPEE [F20T] | 1.88 |
| TSGKRYVYRFVCDLQNLLGRTPEE [F20R] | 1.87 |
| TSGKRYVYRFVCDLQNLLGKTPEE [F20K] | 1.77 |

| Variant | protein stability index |
| --- | --- |
| TSGKRYVYRFVCDLQNLLGHTPEE [F20H] | 1.97 |
| TSGKRYVYRMVCDLQNLLGFTPEE [F10M] | 2.06 |
| TSGKRYVYRSVCDLQNLLGFTPEE [F10S] | 3.37 |
| TSGKRYVYRHVCDLQNLLGFTPEE [F10H] | 2.04 |
| TSGKRYVYRCVCDLQNLLGFTPEE [F10C] | 2.06 |
| TSGKRYVYRDVCDLQNLLGFTPEE [F10D] | 3.9 |
| TSGKRYVYRWVCDLQNLLGFTPEE [F10W] | 2.42 |
| TSGKRYVYRTVCDLQNLLGFTPEE [F10T] | 2.26 |
| TSGKRYVYRIVCDLQNLLGFTPEE [F10I] | 2.02 |
| TSGKRYVYRYVCDLQNLLGFTPEE [F10Y] | 3.17 |
| TSGKRYVYRPVCDLQNLLGFTPEE [F10P] | 2.59 |
| TSGKRYVYRFVCDLQNLLGFTPDE [E23D] | 2.04 |
| TSGKRYVYRFVCDLQNLLGFTPAE [E23A] | 2.68 |
| TSGKRYVYRFVCDLQNLLGFTPCE [E23C] | 2.97 |
| TSGKRYVYRFVCDLQNLLGFTPRE [E23R] | 3.3 |
| TSGKRYVYRFVCDLQNLLGFTPIE [E23I] | 2.43 |
| TSGKRYVYRFVCDLQNLLGFTPYE [E23Y] | 2.29 |
| TSGKRYTYRFVCDLQNLLGFTPEE [V7T] | 2.57 |
| TSGKRYEYRFVCDLQNLLGFTPEE [V7E] | 1.3 |
| TSGKRYFYRFVCDLQNLLGFTPEE [V7F] | 2.25 |
| TSGKRYAYRFVCDLQNLLGFTPEE [V7A] | 1.29 |
| TSGKRYNYRFVCDLQNLLGFTPEE [V7N] | 1.25 |
| TSGKRYVYWFVCDLQNLLGFTPEE [R9W] | 1.96 |

| Variant | protein stability index |
| --- | --- |
| TSGKRYVYHFVCDLQNLLGFTPEE [R9H] | 1.65 |
| TSGKRYVYVFVCDLQNLLGFTPEE [R9V] | 2.4 |
| TSGKRYVYKFVCDLQNLLGFTPEE [R9K] | 1.85 |
| TSGKRYVYDFVCDLQNLLGFTPEE [R9D] | 1.66 |
| TSGKRYVYMFVCDLQNLLGFTPEE [R9M] | 3 |
| TSGKRYVYRFVCDLQNLLMFTPEE [G19M] | 1.82 |
| TSGKRYVYRFVCDLQNLLEFTPEE [G19E] | 1.31 |
| TSGKRYVYRFVCDLQNLLDFTPEE [G19D] | 1.98 |
| TSGKRYVYRFVCDLQNLLPFTPEE [G19P] | 2.07 |
| TSGKRYVYRFVCDLQNLLQFTPEE [G19Q] | 2.65 |
| TSGKRYVYRFVCDLQNLLIFTPEE [G19I] | 2.39 |
| TSGKRYVYRFVCDLQNLLKFTPEE [G19K] | 1.36 |
| TSGKRYVYRFVCDLQNLLAFTPEE [G19A] | 3.01 |
| TSGKRYVYRFVCILQNLLGFTPEE [D13I] | 2.81 |
| TSGKRYVYRFVCHLQNLLGFTPEE [D13H] | 1.79 |
| TSGKRYVYRFVCCLQNLLGFTPEE [D13C] | 2.22 |
| TSGKRYVYRFVCTLQNLLGFTPEE [D13T] | 2.99 |
| TSGKRYVYRFVCLLQNLLGFTPEE [D13L] | 2.22 |
| TSGKRYVYRFVCNLQNLLGFTPEE [D13N] | 1.77 |
| TSGKRYVYRFVCDLQNLLGFTCEE [P22C] | 1.4 |
| TSGKRYVYRFVCDLQNLLGFTHEE [P22H] | 2.07 |
| TSGKRYVYRFVCDLQNLLGFTLEE [P22L] | 2.85 |
| TSGKRYVYRFVCDLQNLLGFTEEE [P22E] | 1.46 |

| Variant | protein stability index |
| --- | --- |
| TSGKRYVYRFVCDLQNLLGFTWEE [P22W] | 1.89 |
| TSGKRYVYRFVCDLQNLLGFTVEE [P22V] | 1.05 |
| TSGKRYVYRFVCDLQNLLGFTAEE [P22A] | 1.65 |
| TSGKRYVYRFVCDLQNLLGFTYEE [P22Y] | 3.16 |
| TSGKRYVYRFVCDLQNLLGFTFEE [P22F] | 1.89 |
| TSGKRYVGRFVCDLQNLLGFTPEE [Y8G] | 2.15 |
| TSGKRYVLRFVCDLQNLLGFTPEE [Y8L] | 1.75 |
| TSGKRYVHRFVCDLQNLLGFTPEE [Y8H] | 2.15 |
| TSGKRYVVRFVCDLQNLLGFTPEE [Y8V] | 2.5 |
| TSGKRYVNRFVCDLQNLLGFTPEE [Y8N] | 3.26 |
| TSGKRYVDRFVCDLQNLLGFTPEE [Y8D] | 2.78 |
| TSGKRYVKRFVCDLQNLLGFTPEE [Y8K] | 2.11 |
| TSGKRYVTRFVCDLQNLLGFTPEE [Y8T] | 2.29 |
| TSGKRYVRRFVCDLQNLLGFTPEE [Y8R] | 2.23 |
| TSGKRYVARFVCDLQNLLGFTPEE [Y8A] | 2.12 |
| TSGKRYVYRFDCDLQNLLGFTPEE [V11D] | 2.59 |
| TSGKRYVYRFYCDLQNLLGFTPEE [V11Y] | 2.14 |
| TSGKRYVYRFFCDLQNLLGFTPEE [V11F] | 2.56 |
| TSGKRYVYRFNCDLQNLLGFTPEE [V11N] | 2.67 |
| TSGKRYVYRFCCDLQNLLGFTPEE [V11C] | 3.14 |
| TSGKRYVYRFECDLQNLLGFTPEE [V11E] | 2.61 |
| TSGKRYVYRFWCDLQNLLGFTPEE [V11W] | 2.14 |

Variants of: B2
Assay: as above
Conditions: c terminus: a fixed tail appended

| Variant | protein stability index |
| --- | --- |
| FIPSSHNDRDFLTRIFTEDRFAQY [D24Y] | 1.9 |
| FIPSSHNDRDFLTRIFTEDRFAQW [D24W] | 2.63 |
| FIPSSHNDRDFLTRIFTEDRFAQV [D24V] | 2.79 |
